In US20180147231A1, “METHOD FOR TREATMENT AND PROGNOSIS OF COLORECTAL CANCER” (Oxford University Innovation Limited, priority 2015, published 2018):

Columns and labels:
[1] = system: T84 CRC cells (KRAS-mutant, IL22RA1 high); test: Primary sphere forming assay, T84 cells; format: cell-based, human; details: 10 ng/mL IL-22 pre-treatment 48 h, spheres cultured 6 days
Protocol: (A) Schematic representation of primary sphere forming assay workflow. Cells were pre-treated with 10 ng/mL IL-22 for 48 hours, filtered to single cells and 1000 cells/well were seeded into 96 well low-binding plates in serum-free media containing 1% methylcellulose, 20 ng/mL EGF, 20 ng/mL bFGF with and without 10 ng/mL IL-22. Four experimental replicates were seeded for each condition. Cultured spheres from (B) Colo205, T84 and SW480 cell lines for 6 days. (C) Bright field microscopy images (4×) of single wells 6 days after seeding (1 experiment representative of 4). (D) MTT assay to assess viability of spheres 6 days after seeding (n=3). (E) Bright field microscopy of T84 spheres (20×) 6 days after seeding. (F) Quantification of spheres after 6 days of culture using ImageJ. Data represent mean+/−SD of 3 independent experiments, each with 3 technical replicates per condition. *p<0.05, one-way ANOVA with Dunnett's post test for multiple comparisons.
Colo205, T84, and SW480 cells were pretreated for 48 h in 48 well plates with 10 ng/mL IL-22 (R&D Systems). Cells were filtered to single cells using […] filter and 1000 cells/well were seeded into 96 well low binding plates (Corning) in 1% methylcellulose in IMDM (R&D Systems), 20 ng/mL recombinant EGF (Sigma), 20 ng/mL recombinant basic FGF (Peprotech), lx insulin-transferrin selenite (ITS) (Sigma) in serum-free DMEM. […]

[2] = system: DLD-1 KRAS WT cells (mutant KRAS allele knocked out); test: Phosflow analysis of intracellular signaling, DLD-1 KRAS WT; format: cell-based; details: 30 min 10 ng/mL recombinant human IL-22
Protocol: Therefore this isogenic pair differs only in KRAS mutation status and allows a clean system for comparison of KRAS-dependent IL-22 effects without inter-cell line mutational heterogeneity. (A) Representative FACS plots of IL-22RA1 expression and quantification of mean fluorescence intensity (WI) showing similar IL-22RA1 expression in the isogenic pair (4 experimental replicates). […] MTT was added 2 h prior to end of 48 h incubation. Formazan particles were dissolved in DMSO and absorbance was measured at 540 nm. Raw absorbances are blank corrected, normalized to a no treatment, and represented as a % viability compared to the no treatment condition. n=5 independent experiments with 3 experimental replicates. p values computed by non-parametric Mann-Whitney test comparing 5 FU alone to IL-22 pretreatment with 5 FU for each DLD-1 line.
Adherent Colo205, T84, SW480, and DLD-1 cells were dissociated using StemPro® Accutase® (Life Technologies), filtered through […] filters, and counted by Trypan Blue exclusion. 5×10^5 cells of each line were stained with 5 μL Human IL-22 R alpha 1 Phycoerythrin MAb (Clone 305405) (R&D Systems) or […] isotype rat anti-mouse IgG1 PE (BD Biosciences) and incubated for 30 minutes at room temperature. Cells were washed with PBS, 0.1% BSA, 2 mM EDTA and acquired on the BD LSRII. Analysis was performed using FlowJo (Tree Star) software. […]

[3] = system: T84 cells (KRAS-mutant, IL22RA1 high); test: Chemotherapy killing assay (MTT), T84 cells; format: cell-based, human; details: 48 h pre-treatment with 10 ng/mL IL-22, then 50 μM oxaliplatin or 5-FU for 48 h
Protocol: (A) MTT assay on Colo205, T84, and SW480 cells pre-treated or not pre-treated for 48 h with 10 ng/mL IL-22, then treated with 50 μM oxaliplatin or 5-FU for 48 h. MTT was added 2 h prior to end of 48 h incubation. Formazan particles were dissolved in DMSO and absorbance was measured at 540 nm. Raw absorbances are blank corrected, normalized to a no treatment or IL-22 only, and represented as a % reduction in viability compared to the no treatment or IL-22 only conditions. n=3 independent experiments with 3 experimental replicates, *p<0.05, ****p<0.0001, one-way ANOVA with Tukey's post test for multiple comparisons.
Colo205, T84, SW480, and DLD-1 cells were seeded at a density of 1×10^4 cells/well in 48 well plates. Cells were pre-treated for 48 h with 10 ng/mL IL-22, then subjected to 50 μM oxaliplatin (Sigma) or 5-fluorouracil (Sigma) or vehicle control (DMSO) for 48 h. 50 μg Methylthiazolyldiphenyl-tetrazolium bromide (MTT) (Sigma) was added to each well 2 h prior to the end of incubation. At the end of the 48 h incubation supernatants were aspirated and formazan particles were solubilized with DMSO and transferred to a fresh plate. Absorbance was measured at 540 nm on Spectrostar Nano plate reader (BMG Labtech).

B1: IL-22: recombinant human IL-22 (R&D Systems), IL-10 superfamily cytokine; human sequence SEQ ID NO: 5 (protein, listed as Homo sapiens)
chain: MAALQKSVSSFLMGTLATSCLLLLALLVQGGAAAPISSHCRLDKSNFQQPYITNRTFMLAKEASLADNNTDVRLIGEKLFHGVSMSERCYLMKQVLNFTLEEVLFPQSDRFQPYMQEVVPFLARLSNRLSTCHIEGDDLHIQRNVQKLKDTVKKLGESGEIKAIGELDLLFMSLRNACI
Clonogenic outgrowth (sphere formation) [1]: enhances clonogenic outgrowth
Phosphorylated ERK1/2 [2]: not IL-22 inducible
Phosphorylated STAT3 [2]: identical extent of phosphorylated STAT3
Protection against oxaliplatin and 5-fluorouracil mediated cell death [3]: protects against oxaliplatin and 5 fluorouracil mediated cell death
